The values below are quoted from earlier work in paper PMC7615502.

By Kd is commonly meant the free concentration of one partner at which half of the binding sites on the other are occupied at equilibrium, for simple one-to-one binding.

One data set deals with IL-2Rα (Homo sapiens) (UniProt P01589).
The next data set deals with IL-2Rβγ (Homo sapiens) (UniProt P14784).
Chain of UniProt P14784 (P14784 27-240, chain 1 of 2): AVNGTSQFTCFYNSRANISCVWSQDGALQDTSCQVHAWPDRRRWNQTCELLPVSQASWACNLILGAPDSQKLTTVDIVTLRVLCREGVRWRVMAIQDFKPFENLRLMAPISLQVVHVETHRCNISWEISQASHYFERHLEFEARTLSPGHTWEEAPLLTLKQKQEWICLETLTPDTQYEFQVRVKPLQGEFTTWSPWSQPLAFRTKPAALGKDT
Chain of UniProt P14784 (P31785 23-262, chain 2 of 2, further chain): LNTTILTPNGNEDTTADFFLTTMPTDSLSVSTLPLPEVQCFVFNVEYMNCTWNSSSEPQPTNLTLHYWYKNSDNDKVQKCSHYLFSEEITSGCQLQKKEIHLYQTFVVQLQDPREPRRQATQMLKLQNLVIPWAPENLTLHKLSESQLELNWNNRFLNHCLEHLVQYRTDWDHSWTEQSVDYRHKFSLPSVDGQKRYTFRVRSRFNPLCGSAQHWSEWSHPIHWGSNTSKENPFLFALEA

Chain of UniProt P01589 (P01589 22-240): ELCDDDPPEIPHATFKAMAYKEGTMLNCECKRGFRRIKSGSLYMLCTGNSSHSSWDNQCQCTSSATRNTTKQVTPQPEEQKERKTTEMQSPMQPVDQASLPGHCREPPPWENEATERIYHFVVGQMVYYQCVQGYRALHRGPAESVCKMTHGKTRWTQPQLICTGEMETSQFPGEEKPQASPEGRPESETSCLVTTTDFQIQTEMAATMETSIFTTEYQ

On to IL-2 (from UniProt P60568), for which the Kd in the data set with IL-2Rα (Homo sapiens) is 10 nM; with IL-2Rβγ (Homo sapiens) it was 1 nM.
